Data reported in patent publication US20240059784A1 (Eli Lilly, published 2024).

Tests used:
[1] = target: T1, human TfR (cell-bound) (human, UniProt P02786 1-760); assay: flow cytometry on hCMEC-D3 cells (endogenous human TfR), on ice, PE-labeled secondary
T1 construct: Endogenous receptor on hCMEC-D3 cells (stated); also called hTFR; human transferrin receptor on hCMEC-D3 cells
Procedure: (§1) Human endothelial line hCMEC-D3 (EMD Millipore SC066), endogenously expressing human TfR and MDCK cell line (ATCC CCL-34), engineered to express cynomolgus TfR were utilized to evaluate antibody/protein binding to cell-bound TfR. Cells were grown and maintained at submaximal confluence and detached from cultureware using Accutase cell detachment solution, washed, and allocated at 50000 cells per well for assessment of binding. Cells were treated with a viability stain then subsequently incubated with titrated concentrations of TfR binding proteins on ice. Cells were washed and binding of test antibodies or proteins was detected using a PE-labeled secondary reagent. Cells were then washed and read on the same day using a BioRad ZE5 cytometer. Analysis was performed post-acquisition in FlowJo, analyzing fluorescence of single, viable, non-debris events. EC50 values were derived by plotting geometric median PE intensity values across a given sample titration and fitting a sigmoidal (4PL) response curve in GraphPad Prism 8.3.0.

[2] = target: T2, cynomolgus TfR (on MDCK cells) (cynomolgus, UniProt H9EXL1 1-760 (rhesus entry)); assay: flow cytometry on MDCK cells engineered to express cynomolgus TfR, on ice, PE-labeled secondary
T2 construct: whole, on cells; also called Cyno MDCK
Procedure: as §1

[3] = target: T3, human TfR ECD (His-tagged) (human, UniProt P02786 89-760); assay: SPR (Biacore 8K), 37 C; TfR ECD amine-coupled to CM4 chip, TBP as analyte; multi-cycle kinetics, 2-state fit; n = 3
T3 construct: also called hTfR-ECD-6His; his-tagged hTfR-ECD
Procedure: (§2) Target human and cynomolgous TfR ECD's were immobilized on a CM4 chip (Cytiva P/N 29104989) using standard NHS-EDC amine coupling. The TfR binding proteins were prepared at a final concentration of 0.3, 0.1, 0.033, 0.01, 0.0033, 0.001, 0.00033, 0.0001 μM respectively by dilution of stock solution into running buffer.
(§3) Binding analysis was performed in a multi-cycle kinetics manner. Each analysis cycle consists of (1) injection of the lowest to highest concentration proteins over all Fc at 50 μL/min for 140 seconds followed by return to buffer flow for 400 seconds to monitor dissociation phase; (2) regeneration of chip surfaces with injection of 3M magnesium chloride, for 30 seconds at 100 μL/min over all cells; and (3) equilibration of chip surfaces with a 50 μL (30-sec) injection of HBS-EP+. Data were processed using standard double-referencing and fit to a 2-state binding model using Biacore 8K Evaluation software, to determine the association rate (kₒₙ, M⁻¹s⁻¹ units), dissociation rate (koff, s⁻¹ units), and Rₘₐₓ (RU units). The equilibrium dissociation constant (KD) is calculated from the relationship KD=koff/kₒₙ, and is in molar units.

[4] = target: T4, cynomolgus TfR ECD (cynomolgus); assay: as above
T4 construct: extracellular domain; amine-coupled in the 37 C assay; also called Cyno TfR; His-tagged cynomolgus TfR ECD
Procedure: as §2, §3

[5] = target: T3, human TfR ECD (His-tagged); assay: SPR (Biacore 8K), 37 C; TfR ECD amine-coupled to CM4 chip, TBP as analyte; multi-cycle kinetics, 2-state fit; n = 3; conjugated to MAPT siRNA (dsRNA No. 39 in Table 11b)
Procedure: as §2, §3

EC50 [1] [nM]	EC50 [2] [nM]	Kd [3] [nM]	Kd [4] [nM]	Kd [5] [nM]	Binder
764	453	258	448		TBP14-MAPT siRNA (dsRNA No. 38 in Table 11b) (antibody, MAPT siRNA (dsRNA No. 38) conjugated through a linker at the engineered cysteine (A378C, EU numbering, by the name in Table 6b), Protein-siRNA conjugate of TBP14; also called TBP14-MAPT siRNA conjugate) heavy: EVQLVESGGGLVKPGGSLRLSCVASGFTFSSYSMNWVRQAPGKGLEWVSSISSSSSYIYYADSVKGRFTISRDNAKNSLYLQMNSLRAEDTAVYYCARRHGYSNSDAFDNWGQGTLVTVSSASTKGPSVFPLAPCSRSTSESTAALGCLVKDYFPEPVTVSWNSGALTSGVHTFPAVLQSSGLYSLSSVVTVPSSSLGTKTYTCNVDHKPSNTKVDKRVESKYGPPCPPCPAPEAAGGPSVFLFPPKPKDTLMISRTPEVTCVVVDVSQEDPEVQFNWYVDGVEVHNAKTKPREEQFNSTYRVVSVLTVLHQDWLNGKEYKCKVSNKGLPSSIEKTISKAKGQPREPQVSTLPPSQEEMTKNQVSLMCLVYGFYPSDICVEWESNGQPENNYKTTPPVLDSDGSFFLYSVLTVDKSRWQEGNVFSCSVMHEALHNHYTQKSLSLSLG light: DIQMTQSPSAMSASVGDRVTITCRASQGISHYLVWFQQKPGKVPKRLIYAASSLQSGVPSRFSGSGSGTEFTLTISSLQPEDFATYYCLQHNSYPWTFGQGTKVEIKRTVAAPSVFIFPPSDEQLKSGTASVVCLLNNFYPREAKVQWKVDNALQSGNSQESVTEQDSKDSTYSLSSTLTLSKADYEKHKVYACEVTHQGLSSPVTKSFNRGEC ESKYGPPCPPCPAPEAAGGPSVFLFPPKPKDTLMISRTPEVTCVVVDVSQEDPEVQFNWYVDGVEVHNAKTKPREEQFNSTYRVVSVLTVLHQDWLNGKEYKCKVSNKGLPSSIEKTISKAKGQPREPQVYTLPPSQGDMTKNQVQLTCLVKGFYPSDICVEWESNGQPENNYKTTPPVLDSDGSFFLASRLTVDKSRWQEGNVFSCSVMHEALHNHYTQKSLSLSLG
75.6	57.1		199	213	TBP15-MAPT siRNA (dsRNA No. 39 in Table 11b) (antibody, MAPT siRNA (dsRNA No. 39) conjugated through a linker at the engineered cysteine (S124C, EU numbering, by the name in Table 6b), Protein-siRNA conjugate of TBP15) heavy: EVQLVESGGGLVKPGGSLRLSCVASGFTFSSYSMNWVRQAPGKGLEWVSSISSSSSYIYYADSVKGRFTISRDNAKNSLYLQMNSLRAEDTAVYYCARRHGYSNSDAFDNWGQGTLVTVSSASTKGPCVFPLAPCSRSTSESTAALGCLVKDYFPEPVTVSWNSGALTSGVHTFPAVLQSSGLYSLSSVVTVPSSSLGTKTYTCNVDHKPSNTKVDKRVESKYGPPCPPCPAPEAAGGPSVFLFPPKPKDTLMISRTPEVTCVVVDVSQEDPEVQFNWYVDGVEVHNAKTKPREEQFNSTYRVVSVLTVLHQDWLNGKEYKCKVSNKGLPSSIEKTISKAKGQPREPQVSTLPPSQEEMTKNQVSLMCLVYGFYPSDIAVEWESNGQPENNYKTTPPVLDSDGSFFLYSVLTVDKSRWQEGNVFSCSVMHEALHNHYTQKSLSLSLG light: DIQMTQSPSAMSASVGDRVTITCRASQGISHYLVWFQQKPGKVPKRLIYAASSLQSGVPSRFSGSGSGTEFTLTISSLQPEDFATYYCLQHNSYPWTFGQGTKVEIKRTVAAPSVFIFPPSDEQLKSGTASVVCLLNNFYPREAKVQWKVDNALQSGNSQESVTEQDSKDSTYSLSSTLTLSKADYEKHKVYACEVTHQGLSSPVTKSFNRGEC ESKYGPPCPPCPAPEAAGGPSVFLFPPKPKDTLMISRTPEVTCVVVDVSQEDPEVQFNWYVDGVEVHNAKTKPREEQFNSTYRVVSVLTVLHQDWLNGKEYKCKVSNKGLPSSIEKTISKAKGQPREPQVYTLPPSQGDMTKNQVQLTCLVKGFYPSDIAVEWESNGQPENNYKTTPPVLDSDGSFFLASRLTVDKSRWQEGNVFSCSVMHEALHNHYTQKSLSLSLG
